Paper PMC3626604, “The C-Type Lectin of the Aggrecan G3 Domain Activates Complement” (PLoS ONE, 2013)

Target: T1, factor H (human (endogenous in normal human serum), UniProt P08603 19-1231)
T1 construct: complement factor H; also called FH
Experiment: ELISA; proteins coated (G3 fragments 5 µg/ml, fibromodulin 2.5 µg/ml); heat-inactivated normal human serum diluted in 50 mM Hepes pH 7.4, 150 mM NaCl, 2 mM CaCl2, 50 µg/ml BSA; 1 h at RT; detected with anti-FH
Conditions: one partner purified

T1 sequence (P08603 19-1231): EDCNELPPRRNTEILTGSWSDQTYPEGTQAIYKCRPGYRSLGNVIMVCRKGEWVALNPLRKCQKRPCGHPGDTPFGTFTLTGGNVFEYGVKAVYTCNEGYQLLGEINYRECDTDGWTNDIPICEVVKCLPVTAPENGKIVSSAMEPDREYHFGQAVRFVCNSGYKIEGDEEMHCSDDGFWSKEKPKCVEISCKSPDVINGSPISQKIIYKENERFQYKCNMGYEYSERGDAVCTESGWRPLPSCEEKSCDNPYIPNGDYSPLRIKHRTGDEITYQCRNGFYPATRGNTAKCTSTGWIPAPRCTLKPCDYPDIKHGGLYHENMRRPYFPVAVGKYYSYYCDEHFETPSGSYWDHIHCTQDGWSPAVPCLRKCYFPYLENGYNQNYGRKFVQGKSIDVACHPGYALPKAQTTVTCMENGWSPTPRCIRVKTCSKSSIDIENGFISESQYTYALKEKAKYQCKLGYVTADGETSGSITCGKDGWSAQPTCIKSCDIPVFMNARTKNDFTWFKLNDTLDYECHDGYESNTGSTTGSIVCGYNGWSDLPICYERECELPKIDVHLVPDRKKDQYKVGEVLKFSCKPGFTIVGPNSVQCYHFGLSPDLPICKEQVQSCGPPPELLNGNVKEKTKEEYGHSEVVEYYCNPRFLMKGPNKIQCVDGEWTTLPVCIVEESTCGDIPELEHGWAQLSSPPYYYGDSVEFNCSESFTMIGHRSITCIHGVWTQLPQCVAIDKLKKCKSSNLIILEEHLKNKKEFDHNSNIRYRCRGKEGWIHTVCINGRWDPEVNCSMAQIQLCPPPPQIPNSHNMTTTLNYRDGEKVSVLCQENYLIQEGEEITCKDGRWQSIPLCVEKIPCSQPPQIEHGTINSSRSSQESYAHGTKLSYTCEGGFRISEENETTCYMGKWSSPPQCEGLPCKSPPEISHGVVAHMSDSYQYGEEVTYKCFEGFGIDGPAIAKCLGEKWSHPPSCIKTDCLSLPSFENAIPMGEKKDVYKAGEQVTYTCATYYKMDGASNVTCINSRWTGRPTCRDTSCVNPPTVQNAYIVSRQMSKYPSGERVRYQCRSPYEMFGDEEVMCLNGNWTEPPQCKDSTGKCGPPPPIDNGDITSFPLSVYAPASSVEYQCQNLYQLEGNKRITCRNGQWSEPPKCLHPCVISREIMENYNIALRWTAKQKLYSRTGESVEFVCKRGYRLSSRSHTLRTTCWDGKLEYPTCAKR

binding result: binds
B1: recombinant bovine fibromodulin (natural protein, UniProt P13605 19-376, looked up)
chain: QYEEDSHWWFQFLRNQQSTYDDPYDPYPYEPYEPYPYGGEEGPAYAYGSPPQPEPRDCPQECDCPPNFPTAMYCDNRNLKYLPFVPSRMKYVYFQNNQISSIQEGVFDNATGLLWIALHGNQITSDKVGKKVFSKLRHLERLYLDHNNLTRIPSPLPRSLRELHLDHNQISRVPNNALEGLENLTALYLHHNEIQEVGSSMKGLRSLILLDLSYNHLRKVPDGLPSALEQLYLEHNNVFSVPDSYFRGSPKLLYVRLSHNSLTNNGLASNTFNSSSLLELDLSYNQLQKIPPVSTNLENLYLQGNRINEFSISSFCTVVDVMNFSKLQVLRLDGNEIKRSAMPADAPLCLRLASLIEI
notes: fibromodulin, bovine; source: recombinant
